Experimental data published in US10293027B2, “Methods for treating metabolic disorders using FGF” (Salk Institute for Biological Studies, priority 2010, dated 2019).
“Also recorded” adds a separate entry of the source.

How the values were obtained:
[1] = test system: Glucose Transporter 1 (Glut1); experiment: Glut1 expression in 3T3-L1 adipocytes; assay type: cell-based, mouse
Experimental: FIGS. 6A-6B. FGF-1 and rosiglitazone stimulation of Glut1 expression in 3T3-L1 adipocytes. 3T3-L1 adipocytes were treated with FGF-1 (+=50 ng/ml, ++=100 ng/ml), rosiglitazone (1 μM), or in combination. (A) mRNA (top) and protein (bottom) levels of Glucose Transporter 1 (Glut1); (B) mRNA (top) and protein (bottom) levels of Glucose Transporter 4 (Glut4).
3T3-L1 mouse pre-adipocytes were from American Type Culture Collection (ATCC, Rockville, Md.). Cells were maintained at sub-confluence in growth medium (GM) containing 10% calf serum in Dulbecco's modified Eagle's medium (DMEM) at 37° C. and 5% CO2. For standard adipocyte differentiation, cells were stimulated at 2 days post confluency (referred as day 0) with differentiation medium (DM) containing 10% fetal bovine serum (FBS), 5 μg/ml insulin, 1 μM dexamethasone, and […] 3-isobutyl-1-methylxanthine (IBMX) for 48 hours. […]
Total RNA was isolated from mouse tissue and cells using TRIzol reagent (Invitrogen). cDNA was synthesized from 1 μg of DNase-treated total RNA using SuperScript II reverse transcriptase (Invitrogen). mRNA levels were quantified by QPCR with SYBR Green (Invitrogen). Samples were run in technical triplicates, and relative mRNA levels were calculated by using the standard curve methodology and normalized against 36B4 mRNA levels in the same samples.

ob/ob male mice = experiment: Daily FGF-1 or rosiglitazone treatment of ob/ob mice: fed blood glucose and body composition (Example 5); assay type: in vivo, mouse
Experimental: FIGS. 7A-7H. FGF-1 injection studies in rodents. (A) Fed blood glucose in ob/ob male mice treated with FGF-1 (0.5 mg/kg, s.c.), rosiglitazone (TZD, 5 mg/kg, p.o.), or vehicle. FGF-1 was administered once daily, and blood glucose levels were measured at day 0 (basal levels before FGF-1 injection), day 3, and day 6, 1 hour after injection. The values (±SE) shown are the average of the measurements of 5 animals in a group; (B) Sustained glucose lowering effects of FGF-1: Fed blood glucose levels in ob/ob mice at indicated time points after the last FGF-1 injection at day 6. (C-H): 72 hrs after the sixth dose, another dose was given and effects of FGF-1 and TZD on (C) body weight, (D) total body fat, (E) lean weight, (F) weight gain, (G) liver weight, and (H) heart weight were determined.
In Example 5, ob/ob male mice (8 wk old) were randomized into three groups and treated with daily subcutaneous (s.c.) injections of recombinant mouse FGF-1 (0.5 mg/kg in PBS), oral rosiglitazone (TZD, 5 mg/kg in 0.5% carboxymethyl cellulose), or vehicle. Blood glucose levels were measure in fed animals one hour after treatment. Total body composition analysis was performed using an EchoMRI-100™ (Echo Medical Systems, LLC).
Eight-week-old male ob/ob mice were treated with recombinant mouse FGF-1 (0.5 mg/kg/day, s.c. in 250 μl), rosiglitazone (TZD, 5 mg/kg/day, p.o. in 300 μl), or vehicle control (s.c. vehicle control 0.9% NaCl, 250 μl/mouse; p.o. vehicle control 0.5% CMC, 300 μl/mouse). Blood glucose was measured one hour after treatment at day 3 and day 6 using a standard protocol. (FIG. 7A).
Before treatment, all groups were severely hyperglycemic, as indicated by blood glucose levels of about 400 mg/dl. […] At 6 days, blood glucose levels were even further reduced to around 130-140 mg/dl for both groups. After the sixth dose, blood glucose levels were monitored for another 72 hrs. During this period, both FGF-1- and TZD-treated cohorts maintained normoglycemic levels (<140 mg/dl) for at least 48 hrs (FIG. 7B). At 72 hrs after the sixth dose, a final dose was given, and 12 hrs later, a total body composition analysis was performed by MRI followed by necropsy.

ob/ob mice = experiment: Insulin tolerance test after 4 weeks of chronic FGF-1 administration; assay type: in vivo, mouse; settings: after 4 weeks of chronic administration
Experimental: Glucose tolerance tests (GTT) were conducted after overnight fasting. Mice were injected intraperitoneally (i.p.) with 1 g of glucose per/kg body weight, and blood glucose was monitored at 0, 15, 30, 60, 90, and 120 min using a OneTouch Ultra glucometer (Lifescan Inc). Insulin tolerance tests (ITT) were conducted after overnight fasting. Mice were injected i.p. with 0.5 U of insulin/kg body weight (Humulin R; Eli Lilly), and blood glucose was monitored at 0, 15, 30, 60, 90, and 120 min using a OneTouch Ultra glucometer (Lifescan Inc). Real-time metabolic analyses were conducted in an undisturbed room under 12 h/12 h light/dark cycles using a Comprehensive Lab Animal Monitoring System (Columbus Instruments).
These tests were carried out as described above.

B1: FGF-1: recombinant mouse FGF-1 (acidic fibroblast growth factor), a secreted protein that binds heparin and FGF receptors (protein, UniProt P61148 16-155, looked up)
Fibroblast growth factor 1: FNLPLGNYKKPKLLYCSNGGHFLRILPDGTVDGTRDRSDQHIQLQLSAESAGEVYIKGTETGQYLAMDTEGLLYGSQTPNEECLFLERLEENHYNTYTSKKHAEKNWFVGLKKNGSCKRGPRTHYGQKAILFLPLPVSSD
- expression of GLUT1 in combination with rosiglitazone ([1]; 3T3-L1 adipocytes, FGF-1 plus rosiglitazone (1 μM)): acts synergistically with rosiglitazone
- expression of GLUT1 ([1]; mouse 3T3-L1 adipocytes, prolonged treatment, FGF-1 50 or 100 ng/ml): induces the expression of GLUT1
- blood glucose levels at day three (ob/ob male mice; fed ob/ob male mice, one hour after treatment, FGF-1 0.5 mg/kg/day s.c., TZD 5 mg/kg/day p.o., about 400 mg/dl before treatment): about 200 mg/dl
- blood glucose (in words) (ob/ob male mice; ob/ob diabetic mice, FGF-1 administration): decreases fed blood glucose in ob/ob mice; also recorded: normalizes their glucose levels
- fat-lean ratio (ob/ob male mice; ob/ob mice, total body composition by MRI): improves their fat-lean ratio
- insulin tolerance / insulin sensitivity (ITT) (ob/ob mice): increased insulin sensitivity
